We go through two molecules from paper PMC10716376, “The assembly of the Mitochondrial Complex I Assembly complex uncovers a redox pathway coordination” (Nature Communications, 2023).

B1: ACAD9WT (mature ACAD9, residues 38-621) (enzyme, human, UniProt Q9H845 38-621, looked up)
chain: AFAKELFLGKIKKKEVFPFPEVSQDELNEINQFLGPVEKFFTEEVDSRKIDQEGKIPDETLEKLKSLGLFGLQVPEEYGGLGFSNTMYSRLGEIISMDGSITVTLAAHQAIGLKGIILAGTEEQKAKYLPKLASGEHIAAFCLTEPASGSDAASIRSRATLSEDKKHYILNGSKVWITNGGLANIFTVFAKTEVVDSDGSVKDKITAFIVERDFGGVTNGKPEDKLGIRGSNTCEVHFENTKIPVENILGEVGDGFKVAMNILNSGRFSMGSVVAGLLKRLIEMTAEYACTRKQFNKRLSEFGLIQEKFALMAQKAYVMESMTYLTAGMLDQPGFPDCSIEAAMVKVFSSEAAWQCVSEALQILGGLGYTRDYPYERILRDTRILLIFEGTNEILRMYIALTGLQHAGRILTTRIHELKQAKVSTVMDTVGRRLRDSLGRTVDLGLTGNHGVVHPSLADSANKFEENTYCFGRTVETLLLRFGKTIMEEQLVLKRVANILINLYGMTAVLSRASRSIRIGLRNHDHEVLLANTFCVEAYLQNLFSLSQLDKYAPENLDEQIKKVSQQILEKRAYICAHPLDRTC
notes: human ACAD9, mature form, residues 38-621; E. coli codon-optimised synthetic gene; Cloned into pET-21d(+); Plasmid details are in Supplementary Data 1; source: E. coli C43 (DE3), purified (HisTrap, dialysed in SEC buffer)

For data set [1], the target named is T1, ECSIT_(CTER) (residues 221-431) (human, UniProt Q9BQ95 221-431).
T1 chain: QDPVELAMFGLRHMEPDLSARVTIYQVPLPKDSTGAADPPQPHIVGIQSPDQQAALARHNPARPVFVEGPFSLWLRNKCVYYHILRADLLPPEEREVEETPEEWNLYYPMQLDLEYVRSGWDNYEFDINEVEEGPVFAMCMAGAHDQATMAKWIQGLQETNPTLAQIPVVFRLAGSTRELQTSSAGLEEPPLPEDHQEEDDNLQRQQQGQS
The data set is described as follows: ITC.

Data set [2] deals with the molecule itself. Put plainly: cryo-EM structure; ACAD9WT-ECSIT_(CTER) reconstituted (molar ratio 1:1.25) and purified by gel filtration; 25 mM HEPES, 300 mM NaCl, 1 mM TCEP, pH 7.5; C2 symmetry imposed.
The next data set concerns the target T2, ACAD9_(A184S/SR194TS) (human, UniProt Q9H845 38-621, A184S | SR194TS).
T2 construct: human ACAD9, residues 38-621, A184S and SR194TS combined (mimics the VLCAD gatekeeper loop); source: E. coli C43 (DE3), purified (HisTrap, dialysed in SEC buffer)
T2 sequence (looked up): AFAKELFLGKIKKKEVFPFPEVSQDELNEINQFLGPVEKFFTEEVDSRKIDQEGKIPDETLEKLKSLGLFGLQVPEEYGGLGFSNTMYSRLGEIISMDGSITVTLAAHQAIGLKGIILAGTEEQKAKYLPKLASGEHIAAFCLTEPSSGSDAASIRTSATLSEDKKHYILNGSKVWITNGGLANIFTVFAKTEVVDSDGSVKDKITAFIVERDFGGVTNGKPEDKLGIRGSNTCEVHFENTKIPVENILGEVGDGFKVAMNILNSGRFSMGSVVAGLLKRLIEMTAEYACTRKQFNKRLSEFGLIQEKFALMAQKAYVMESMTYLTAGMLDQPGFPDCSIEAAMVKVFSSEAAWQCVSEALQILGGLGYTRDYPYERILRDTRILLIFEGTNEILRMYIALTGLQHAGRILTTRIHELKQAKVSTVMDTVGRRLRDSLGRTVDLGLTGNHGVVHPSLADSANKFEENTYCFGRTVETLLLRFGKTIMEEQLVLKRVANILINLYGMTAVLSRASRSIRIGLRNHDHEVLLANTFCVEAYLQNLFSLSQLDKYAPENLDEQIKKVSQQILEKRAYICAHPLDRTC
The data set is described as follows: mass photometry; ACAD9 (or VLCAD) at 20-50 nM in 25 mM HEPES pH 7.5, 250 mM NaCl, or diluted in 4.8 uM ECSIT solution for complex formation. Particulars: both partners purified.

Another data set has as its target T3, ACAD9_(S191A) (human, UniProt Q9H845 38-621, S191A).
T3 construct: human ACAD9, residues 38-621, S191A; One FAD per protomer in the cryo-EM structure; source: E. coli C43 (DE3), purified (HisTrap, dialysed in SEC buffer)
T3 sequence (looked up): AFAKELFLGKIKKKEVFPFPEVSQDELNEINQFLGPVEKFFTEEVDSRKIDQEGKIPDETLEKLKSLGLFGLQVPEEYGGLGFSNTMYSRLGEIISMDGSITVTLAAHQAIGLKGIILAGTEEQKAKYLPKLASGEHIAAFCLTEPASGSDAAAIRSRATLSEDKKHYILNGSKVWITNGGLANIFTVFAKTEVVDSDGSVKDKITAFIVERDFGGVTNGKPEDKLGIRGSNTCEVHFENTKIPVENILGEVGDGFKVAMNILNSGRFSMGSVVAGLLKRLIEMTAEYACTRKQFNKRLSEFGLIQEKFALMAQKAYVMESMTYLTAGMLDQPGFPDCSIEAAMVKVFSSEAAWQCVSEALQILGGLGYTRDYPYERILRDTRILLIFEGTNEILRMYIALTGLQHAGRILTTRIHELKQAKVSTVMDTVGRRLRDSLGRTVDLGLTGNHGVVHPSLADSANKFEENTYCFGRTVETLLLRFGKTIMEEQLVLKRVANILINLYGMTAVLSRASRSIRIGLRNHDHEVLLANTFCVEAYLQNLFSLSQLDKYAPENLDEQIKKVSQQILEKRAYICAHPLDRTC
The data set is described as follows: ITC; 25 °C; ACAD9 at 49 uM in the cell, titrated with ECSIT at 300 uM; 50 mM Tris-HCl pH 7.5, 250 mM NaCl. Particulars: both partners purified.

Data set [3] has as its target B1. The data set is described as follows: cryo-EM structure; ACAD9WT-ECSIT_(CTER) reconstituted (molar ratio 1:1.25) and purified by gel filtration; 25 mM HEPES, 300 mM NaCl, 1 mM TCEP, pH 7.5; C2 symmetry imposed. As to conditions: both partners purified.
The target in another data set is T4, ACAD9_(A184S) (human, UniProt Q9H845 38-621, A184S).
T4 construct: human ACAD9, residues 38-621, A184S (mimics the VLCAD gatekeeper loop); source: E. coli C43 (DE3), purified (HisTrap, dialysed in SEC buffer)
T4 sequence (looked up): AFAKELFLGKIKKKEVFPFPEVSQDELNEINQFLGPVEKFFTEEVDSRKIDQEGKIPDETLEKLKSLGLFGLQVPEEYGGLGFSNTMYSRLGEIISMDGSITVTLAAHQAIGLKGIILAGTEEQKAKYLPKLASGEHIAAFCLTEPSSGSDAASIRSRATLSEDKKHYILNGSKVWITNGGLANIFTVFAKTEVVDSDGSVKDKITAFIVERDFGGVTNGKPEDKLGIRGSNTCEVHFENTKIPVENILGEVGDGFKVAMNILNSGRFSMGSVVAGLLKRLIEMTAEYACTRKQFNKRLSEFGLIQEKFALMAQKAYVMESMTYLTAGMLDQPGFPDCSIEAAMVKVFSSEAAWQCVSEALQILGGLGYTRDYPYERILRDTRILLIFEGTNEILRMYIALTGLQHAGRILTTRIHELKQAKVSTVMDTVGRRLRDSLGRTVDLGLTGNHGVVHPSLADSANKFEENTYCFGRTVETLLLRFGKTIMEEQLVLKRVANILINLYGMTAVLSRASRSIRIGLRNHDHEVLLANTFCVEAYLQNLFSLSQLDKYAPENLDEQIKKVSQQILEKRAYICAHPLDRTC
Put plainly: dynamic light scattering; 278 K, protein at 1-2 mg/ml; complexes reconstituted at molar ratio 1:1.25. As to conditions: both partners purified.

The target in another data set is T5, ACAD9_(SR194TS) (human, UniProt Q9H845 38-621, SR194TS).
T5 construct: human ACAD9, residues 38-621, double mutant SR194TS (mimics the VLCAD gatekeeper loop); source: E. coli C43 (DE3), purified (HisTrap, dialysed in SEC buffer)
T5 sequence (looked up): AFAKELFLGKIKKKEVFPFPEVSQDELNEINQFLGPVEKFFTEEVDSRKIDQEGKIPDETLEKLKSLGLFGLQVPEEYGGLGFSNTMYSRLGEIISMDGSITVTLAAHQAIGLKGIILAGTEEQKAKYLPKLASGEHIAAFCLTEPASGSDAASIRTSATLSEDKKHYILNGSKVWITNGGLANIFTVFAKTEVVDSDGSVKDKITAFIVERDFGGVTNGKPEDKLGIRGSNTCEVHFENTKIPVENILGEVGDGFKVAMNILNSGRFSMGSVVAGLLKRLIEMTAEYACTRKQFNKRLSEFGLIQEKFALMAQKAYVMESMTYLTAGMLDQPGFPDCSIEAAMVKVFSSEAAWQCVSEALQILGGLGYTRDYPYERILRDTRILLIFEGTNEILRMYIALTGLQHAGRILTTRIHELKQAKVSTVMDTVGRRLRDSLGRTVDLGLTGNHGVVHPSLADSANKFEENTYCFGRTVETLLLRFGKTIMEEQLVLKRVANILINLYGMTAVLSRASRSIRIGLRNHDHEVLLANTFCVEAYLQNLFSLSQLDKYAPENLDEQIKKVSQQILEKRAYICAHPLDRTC
The data set is described as above. As to conditions: both partners purified.

In data set [1], B1 displayed a Kd of 1.45 µM. Also, the “stoichiometry N” value in data set [2] came out at 2.

B2: ECSIT_(CTER) (residues 221-431) (domain or fragment, human, UniProt Q9BQ95 221-431, looked up)
chain: QDPVELAMFGLRHMEPDLSARVTIYQVPLPKDSTGAADPPQPHIVGIQSPDQQAALARHNPARPVFVEGPFSLWLRNKCVYYHILRADLLPPEEREVEETPEEWNLYYPMQLDLEYVRSGWDNYEFDINEVEEGPVFAMCMAGAHDQATMAKWIQGLQETNPTLAQIPVVFRLAGSTRELQTSSAGLEEPPLPEDHQEEDDNLQRQQQGQS
notes: human ECSIT, residues 221-431; E. coli codon-optimised synthetic gene; Only residues 320-334 are modelled in the cryo-EM map; Plasmid details are in Supplementary Data 1; also called C-terminal ECSIT; source: E. coli BL21 Star (DE3), purified (HisTrap, SEC)
For the molecule B2, the binding result with ACAD9_(A184S/SR194TS), in the data set with ACAD9_(A184S) and with ACAD9_(SR194TS) was “binds” each time. In the data set with ACAD9_(S191A), this molecule yielded a Kd of 3.93 µM. Further, the “fold decrease in fold change against ACAD9WT-ECSIT_(CTER)” value with ACAD9_(S191A) is approximately 3 fold. The “stoichiometry N” value in data set [3] is 1 ECSIT_(CTER) per ACAD9 protomer.
